The source of these data is article PMC8017708.

Substitutions are numbered along the chain they refer to. Names may count otherwise.

What all share (details): remark: other sources report otherwise
The target of assay [1] is T1, recombinant UVR8 (wild-type) purified from Sf9 insect cells (Arabidopsis thaliana), Q9FN03.
T1 chain: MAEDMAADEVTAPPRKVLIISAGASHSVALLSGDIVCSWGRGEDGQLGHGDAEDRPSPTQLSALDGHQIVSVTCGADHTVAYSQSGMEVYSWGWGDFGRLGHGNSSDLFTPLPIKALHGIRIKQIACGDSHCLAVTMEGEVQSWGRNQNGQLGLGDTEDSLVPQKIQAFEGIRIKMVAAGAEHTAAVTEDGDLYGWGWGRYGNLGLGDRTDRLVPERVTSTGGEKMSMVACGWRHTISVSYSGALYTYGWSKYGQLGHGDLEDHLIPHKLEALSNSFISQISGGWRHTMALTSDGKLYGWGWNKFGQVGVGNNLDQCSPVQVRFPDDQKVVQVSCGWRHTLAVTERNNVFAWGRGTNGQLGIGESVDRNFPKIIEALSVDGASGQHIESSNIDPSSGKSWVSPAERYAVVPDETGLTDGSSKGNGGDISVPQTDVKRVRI
The assay is described as follows: SEC. Background: SEC sorts molecules by how far they enter the pores of the column.

In assay [2] the target is T2, recombinant UVR8^W285A purified from Sf9 insect cells (Arabidopsis thaliana), Q9FN03.
T2 chain: T1 chain with W285A
Put plainly: SEC.

In assay [3] the target is T3, UVR8^W285A expressed in Arabidopsis (Arabidopsis thaliana), Q9FN03.
T3 chain: T1 chain with W285A
Put plainly: cross-linking.

B1: recombinant UVR8 (wild-type) purified from Sf9 insect cells, Q9FN03 1-440 (natural protein)
chain: T1 chain
For B1, in assay [1], the stoichiometry N (commonly a count of units in the complex or per binding partner) amounted to 2.

B2: recombinant UVR8^W285A purified from Sf9 insect cells, Q9FN03 1-440 (natural protein)
chain: T1 chain with W285A
Regarding B2, the stoichiometry N in assay [2] is 2.

B3: UVR8^W285A expressed in Arabidopsis, Q9FN03 1-440 (natural protein)
chain: T1 chain with W285A
Turning to B3, the stoichiometry N in assay [3] came to 2.
